assay: soluble on expression in E. coli; label from the status in PepcDB or PDB records

Row | Sequence | soluble on expression in E. coli
1 | MGSDKIHHHHHHMYHEFTPCAALVPFIDKFWVFKGFTDIGTRFKILADGCTDFIFSIGNMTVPTDEHSMIMQPYRSFFVGPMRSYSNLTATTDSLHMLGVRFQPCGLAAFTNEPLGQFADLRIQSSDINLLFDNSFAEMLCEQPDDSVRIRIIEGYLIRLLTQSIQVDRQIIYATSFIKQSYGQLPVQNLIDKICICQRHFQRKFKDATGYTPKEFSRIIKFQYAIEVLRNAPHTDLSSIALDCGYYDHSHFIKEFKRLAGDVPSYFLTLPNPADEPLTYI | not soluble
2 | MGSDKIHHHHHHMYTFTNQFISNDKNVEFLKAAMMGPNAMRLAEELSSHLNIDETMRILDLGCGCGLSTLLLTKKYGASVFAADLWISPTENYERFQSLGIADKAVPISVDATKGLPFAKGYFDLLFTVDAYHYFGDTAAMLPSLIPFVKKGGYIAVAIPGLNYEFEDKVPDEMQPFWNSEMARTLHSLDWWKDLWKKAEGIEMVDSREMACCREAWQEWLTAYHPIVAEDIKMMAAEDGKYFNLVQLIAKVL | not soluble
3 | MAHHHHHHMYFVIEEWKNVIIKPSQLGPRYQQYIEDMLRNSVEGQCSVKYGYVICVIRIIHSEPGRVQDGTGMIVVKVKYQAIVFKPFKDEVLDAIVTDVNKLGFFAQAGPLKIFISRTAIPKYFEYSEDLHYPCFSSGDYNIKPQTTVRIKLQGIRYDLSNMFAIATINNEYLGCIESNILQVM | not soluble
4 | MEEAKQKVVDFLNSKSGSKSKFYFNDFTDLFPDMKQREVKKILTALVNDEVLEYWSSGSTTMYGLKGAGKQAAAEHED | soluble
5 | MAHHHHHHMHTFYTIRYPPPNSQKGGEDSQPIRVTNKAMESLLFCIVHSIEFQSPLQPSRPQLGSSIGSSGKDSITDDEAYVRPVENSSMLLGNVTYVSRSKHKPSVLASLHTAVEAARAIQIPEKSSQVPFELRVRLLRRHRGWLWHDSRPLVEWVFRMAKTREEFSFSTTHGDASERPRPRTSPRATNAHANVVRATGGGGVHSRSREDGLVCSNDPEQIRQVLQFILKHSYDAIDLNTYADFRSGELIFDVSVQEV | not soluble
6 | MDFESNGAMMEYCKSTGRTYCAFSIQQSSKLLGTVVLELFTDIAPATCANFIKYIKDGYQGTPLHRIVPNGWVQGGDIVDGSGKGDPGFVLPDETYSVKHDAPGVLGMATGGQPHTANTQFYISLSPLPFLDGKRVAFGRVLNKQSLENLLALQTLPTFQNERPVPDVVIASCHVIYNPNS | not soluble
7 | MSSPSSASESDSSQMSLLATPPVAIRRPLPYPRDIISSPLEVATPVTVSPTDFMPIRELVTTPYHISTPVLITPVDARSISREIVRVNRIRRVRTRQASRSVFNSVRRRLSMITANRTEIQMNTPQTLPRSKRIDNTSTAMEPVSSNAFQKIISEILNNSPACTETINSTIIPSNSSNCAKLREFNRLESIGIAQMAVENENEILEALDFIEWNIRLMSCESDYIDKVLEDLENEKLNKQNKWERIELILSLIQD | not soluble
8 | MKFGLFFLNFMNSKRSSDQVIEEMLDTAHYVDQLKFDTLAVYENHFSNNGVVGAPLTVAGFLLGMTKNAKVASLNHVITTHHPVRVAEEACLLDQMSEGRFAFGFSDCEKSADMRFFNRPTDSQFQLFSECHKIINDAFTTGYCHPNNDFYSFPKISVNPHAFTEGGPAQFVNATSKEVVEWAAKLGLPLVFRWDDSNAQRKEYAGLYHEVAQAHGVDVSQVRHKLTLLVNQNVDGEAARAEARVYLEEFVRESYSNTDFEQKMGELLSENAIGTYEESTQAARVAIECCGAADLLMSFESMEDKAQQRAVIDVVNANIVKYHSLEHHHHHH | soluble
9 | MSNPVTITEAAALHIKDMMKEHEEENAFLRVGVKGGGCSGLSYGMGFEHEKSESDSVFDQHGITVLVDKESLDIMNGTVIDYKQSMLGGGFTIDNPNAIASCGCGSSFRTATNAGKPEEC | soluble
10 | SKHKQSSFTKSCYPRGTLSQAVDALYIKAAWLKATIPEDRIKNIRLLKKKTKKQFMKNCQFQEQLLSFFMEDVFGQLQLQGCKKIRFVEDFHSLRQKLSHCISCASSAREMKSITRMKRIFYRIGNKGIYKAISELDILLSWIKKLLESSQ | soluble
11 | MVIMAGKAVRTEQVSATRQLILTTAERLFAEHGVYAVSNRQVSEAAGQGNNAAVGYHFGTKTDLVRAIAQRHSERVEELRARQLAALGDSPDLRDWVDCLVRPQFDHLAALGSPTWYARFCAQVMTDPALRQIMTEESRASVSLRAIIVGRNRCMPALPDEVRAERGDMARHLIVHTAEERERALAENRPTPRASWQDAADGLVDAIVGMWLAPVTPRGGG | not soluble
12 | MGSDKIHHHHHHMAEYFQDDLGFRPFNAQVNHCTRDLGFRLYEPSDVLFASFSDESGMRTYVRTLSFILSKAVADILPGSKLFIEHSLSNGYYCQIKNAHMITPGEIVRIKERMESLIVADIPFRAHCERTEEVAAMFRSMGYEDKADLLETKGMPYSRYYDLDGYPDYYYGSLAPSTGYIGLFGLEPYLDGVLLRIPRRDKPEELAPFVPQPMMRQVFADHDRLLDILQVTHVGSLNKAVDRNDISTMVQVSEAMQEKQIAAIADDIAHKYKEGVRVVLISGPSSSGKTTFCKRLQTQLLTNYIRPYGLSLDDYFINREDSPRDESGDYDFESLYALDLPLFNKDLKQMIAGEEVSLPTYDFATGMRVYKGNTIQLKDGDILILEGIHALNPELIPGVPESSTYKIYVSALTAIGLDAHNRIPSTDNRLIRRLVRDYRYRNYSGLGTLRRWQSVRRGEEKWVFPFQENAHVMFNSAMLYELAVLRAYAEPILQAIPRNEPEYAEARRLLRFLSSFRMIPARLLPNNSLMREFLGGSTFHY | not soluble
13 | KMPVTAGLTVEKKINKHLAVETGLLYSNLRAEQNLHYLGIPVKLNVTLAETPKFDLYASVGGVADKCIAGAPDNSFKNEPVQLALTAGVGMNYKINDKLALFAEPG | not soluble
14 | MSLDRVDRDILRILHAKGRLPVVELAKLVNLTTSPCSERVKRLEKEGYIRGYHADLDPGKLGLDVQVFIHIRLDQSSFSIFERFAHAVADIPEIEACYSLSGDFDTMIKVRVKDMKAYQAFMSGKLGSLPGVIQTRSEFVIEEHKTSFGINPELIYSLPS | not soluble
15 | MLAHLEELKKNIEGDLYFDLTMRTLYATDASVYRELPLAVARPKHKQDVQKIIAFANKYKIGIIPRTAGTSLAGQVVGKGIIVDVSKYFTE | not soluble
16 | SLLEIDNQTPLESDFSLLEKIAKFLAPTQIIELVLVSDETMREINRDLRGCDYVTDVLSFPLEAIPHTPLGSVVINAPLAQENALKLGHRLEEEIALLFIHGVLHLLGYDHEKDKGEQRQKESELIKAFNLPLSLIERTQD | soluble
17 | MSLPNSEDLRKPDAQREVGRHYPVTLDNQLVSTPEEEVIAPPSVMLRWETYQVANGESAALLFQRAGLSSRVLYELTSSNSDINNQLSKLMPKDELKFGFDKDNQLVQLKRTISPYETFVVTRSDSGFTSEFDKKEVTFQLNYAEAKITSNFWNAGVTAGLSANQIIELANMFGWDIDFALDIREGDQFKLLYQEKIVEGSVIGRGNIIAATFINQGSTFTAILDDNTGNYYDQNGRAMKKAFLRSPLDFRRVSSNFNPRRLHPVTGQIKAHRGTDYVAPVGTPIWAAGDGVVEKSSYNQFNGNYVYIRHSNTYITKYLHLQRRLVKTGERVKQGQTIGTLGGTGRVTGPHLHYEFLVNGIHKNPRTVELPQAQSLTGKAKETFIANAKQRMEKLERYSQLLYANQEGHHHHHH | soluble
18 | MYHWFALRSVPLVGNVLYRRLLDRFGSPEAVFRASDAELASVRGVSSAVAASIRGHDPRAFAESECERVRRAGVRIVTIRDPDYPPLLLQIADPPPYLYVKGDPTGLEPAVAVVGSRRATVYGRTVTARLAEDLARRGVAVVSGMARGIDTAAHQGALAGEGRTVGVLGCGIDVVYPPENRALFARVADRGALVSEFPLGMGPLAENFPRRNRIISGMCRGVLVVEAAERSGSLITAQMALDQGRDVFAIPGNITSSGSSGTNRLIREGAKLVAGVEDILEELVPRAAAAVAVAPPLPPLPAGEAALMAMFGADPLHIDEIIAKSALTVGEVSAMLLRLELKGVVTQLPGKFFHAN | not soluble
19 | SDDFDMLSAPQGSAGNGVGADEDPAAAFLAQQESEIAGIENDEGFSILDSGDVPSSLSQDQDGGAMNGDLHGESNGPSDVYAAISSVDRLQAEPESLRKWREEQRDRLEELDANSRKQEAEWKEKAKLELEEWHTRQNEQLEKTKVNNRVLDEDFYKQPFADLIGYVTHINHPCYRLDQAAEEAMVSELDENSPGTEWERVARLCDFNPKSSKQAKDVSRMRSVLISLKQAPLVR | soluble
20 | MWAFPERFEGRHVRLEPLALAHLPAFLRHYDPEVYRFLSRAPVAPTEEALRAHLEGLLGEPGRVNWAILFGKEVAGRISVIAPEPEHAKLELGTMLFKPFWGSPANKEAKYLLLRHAFEVLRAERVQFKVDLRNERSQRALEALGAVREGVLRKNRRLPDGAFRDDVVYSVLKEEWPGVKARLEARLYGASGNP | soluble
21 | MSLPQKSKVMHIARTLTGSTTQDEGQERQEAKTQDCQEDKRPETLVKGNGNNMECSRLREKQGVLIANRDGGTR | not soluble
22 | MQQEALSFLSSSLPSLHHNFPSLSRLRFNNFPALSFKPNTSSSSSSFFKSPDIPSLSSTTTTTTTTETLESSIHEKLIYLDSLGIDFLTLINRHPPLLSTALSAVESVVDYMTTPPINFTLQDFRRLVSMCPELLTSPLTSHTIPVITFLLREVGVDSIFDLRQALRRRPRLLACSVDHQLRPTLYFLQRIGILDPHKHTYLLSCSVDNKLVPRIDYFEKLGFSRRSATAMFKRFPQLFNYSIAENYEPKLKYLMVEMGRDVREVLEFPQYFSFSLENRIKPRHEACAAKGVRFPLPVMLKTNEAGFRDTLEVCCDSSPPLKTSRLVTVQKDS | not soluble
23 | MRGEAGELAVSSGEIATGALSPEKQQEQELMGKLAATGKLPARPASSFLQKKLQQRKFFDSGDYAMDKSKAGTGLGSKPHPLAGGPPPAAPPVVAQRSPAPAATTPSPSASPISQQTNRPSSDRNSDDDNLQIPRPDTVPQRKASIINPSVHCKLSPAPHVQHHDAASPNATSE | soluble
24 | MAHHHHHHMRSTSALYRYACDEEGCVSHSELVKLFHGIDVALGTDADATAKADDMTPAPPPPALADKMLLAYAPNLCFPTHLTLSQSYLGDAGLAAFMRMLPVLRWVRAIEARGVGAGPRTIEALSGALTAYLVEGCEEAAALPTVATMGDSVSGAEQLAGGRLPALELVDLRDNDGIYALSGQRLLTALRKRRLMLRAWCAAHAGVGDVVPALEVLVDLDALPPSTANALHEWNEGAANLKYQRMLARETHRWQEQVQVFTVRSAVSEAMKCSDSDMPGTAVAGAAAGQPVGEHVIFRLPSSADGDSQMTQMTCEVNACMSDFLTASCCLSSAKEAAPQPAHVVSGSSSLACPLPTLDGVRAALQVCIDFGADTLAILPHTNATLWYVASVWQQQQKEQHATTPSSSADTAEYVQLNYWEAKANVAALLRGLQANPALETELETSSQAGGVVIQRHLYRLRELYVQLDQNDAPHEDAICTARVAGVGATPLSEMVALYYRIVAALVTRRFSETHLPSMRACEQHISDVTEHVLNHLVVGEVSSEALEARIERLRSSTDAGSVPSGRPSGASDFSQSTRALPPVMAQCLYHLRRHQAEAEAWVKTYAGTAVAAPQPSSSSAAAAPIHAFHACHCADGLRRHMDECVAPTSSNEGLSSNLLPLPCTSCCYHALQAAQTLLQSPGEGSSGECELCARWAILEPVRRALPRELRMFFLDMVIRHRSRVRGGCAYVPSLDSVTGVGAPLPLSMVDWLAYTEHQSENWAKVLRVFGEWYRLRALESYGIAEARTLLRQPPT | not soluble
25 | MTERKIFNRLKSVLAEKGKTNLWLTETLDKNKTTVSKWCTNDVQPSLETLFDIAEALNVDVRELIVSTKR | soluble

Source: the DeepSol protein solubility set
